Results from paper PMC7585734, “Site-specific epitope insertion into recombinant proteins using the MAP tag system” (Journal of Biochemistry, 2020).

T1: MAP tag peptide (14-residue) (Mus musculus)
T1 construct: 14-residue MAP tag derived from mouse podoplanin; also called MAP14 peptide; MAP peptide; source: synthetic peptide; also conjugated to Sepharose
T1 chain: GDGMVPPGIEDKIT

T2: Fn10-iFG-G (mouse podoplanin MAP8 tag (carried in …, chimera))
T2 construct: Fn10 of human fibronectin up to Gly1494 of the FG loop; extra Gly residue(s) before the tag; MAP8 tag, derived from mouse podoplanin; extra Gly residue(s) after the tag; Fn10 of human fibronectin from Ser1496; As Fn10-iFG with the inserted MAP8 flanked by extra Gly residues at both ends; source: Expi293F, transiently transfected, culture supernatant
T2 chain: GDGMVPPG

T3: Fn10-nMAP8 (Mus musculus (MAP tag), chimera)
T3 construct: MAP8 tag, the N-terminal 8 residues of the MAP tag derived from mouse podoplanin, at the N-terminus; tenth fibronectin type III domain (Fn10) of human fibronectin, residues 1417-1509; disulphide-linked dimer via the Fc; also called N-terminally MAP-tagged Fn10-Fc; source: Expi293F, transiently transfected, culture supernatant
T3 chain: GDGMVPPG

T4: Fn10-nMAP14 (Mus musculus (MAP tag), chimera)
T4 construct: original 14-residue MAP tag derived from mouse podoplanin, at the N-terminus; tenth fibronectin type III domain (Fn10) of human fibronectin, residues 1417-1509; disulphide-linked dimer via the Fc; also called N-terminally MAP-tagged Fn10-Fc; source: Expi293F, transiently transfected, culture supernatant
T4 chain: GDGMVPPGIEDKIT


Experiments:
[1] = molecular target: T1, MAP tag peptide (14-residue); assay: pull-down; purified Fv-clasp samples mixed with MAP14 peptide-conjugated Sepharose, 1 h at room temperature; washed three times with TBS (20 mM Tris pH 7.5, 150 mM NaCl); 15% SDS-PAGE, Coomassie; details: both partners purified
[2] = molecular target: T2, Fn10-iFG-G; assay: pull-down; PMab-1 immobilised on Sepharose; culture supernatants of transfected Expi293F cells; washed three times with TBS; 12.5% non-reducing SDS-PAGE, Coomassie; details: one partner purified
[3] = molecular target: T3, Fn10-nMAP8; assay: as above; details: one partner purified
[4] = molecular target: T4, Fn10-nMAP14; assay: as above; details: one partner purified

Binder	binding result [1]	binding result [2]	binding result [3]	binding result [4]
PMab-1(QQ) Fv-clasp (other, rat | human, VH domain of rat anti-MAP monoclonal antibody PMab-1; SARAH domain of human Mst1 (anti-parallel coiled coil of the Fv-clasp format); VL domain (kappa) of rat anti-MAP monoclonal antibody PMab-1; SARAH domain of human Mst1 with S37C; Fv-clasp(v2) format, non-tagged version; also called PMab-1(QQ) Fv-clasp mutant; PMab-1VH(S112C)-SARAH with N43Q and N54Q + PMab-1VL-SARAH(S37C)) VH: QIQLQQSGTVLVKPASSVKISCKASGYSFTSHYMHWIRQQPGQGLEWIGWISPEQGNTKYNQKFDGKATLTADKSSSIAYMQLSSLTSEDSAVYFCVSWEDWSAYWGQGTLVTVCS VL: DIVLTQSPALTVSLGQRATISCKTNQNVDYYGNSYVHWYQQKPGQKPKLLIYLASNLASGIPARFSGRGSGTDFTLTIDPVEAADTATYYCQQSRDLPNTFGAGTKLELK	binds			
PMab-1 Fv-clasp (other, rat | human, VH domain of PMab-1 with S112C; as the VH of m1 (PDB 6lz4, VH-SARAH chain) but with Asn at 43 and 54 instead of the Gln of the entry; C112 is already in the entry; SARAH domain of human Mst1; VL domain (kappa) of PMab-1; as the VL of m1 (PDB 6lz4, VL-SARAH chain); SARAH domain of human Mst1 with S37C; as in the VL-SARAH chain of m1 (PDB 6lz4), which already holds the Cys; Parent of m1, without …) VH: QIQLQQSGTVLVKPASSVKISCKASGYSFTSHYMHWIRQQPGNGLEWIGWISPENGNTKYNQKFDGKATLTADKSSSIAYMQLSSLTSEDSAVYFCVSWEDWSAYWGQGTLVTVCS VL: DIVLTQSPALTVSLGQRATISCKTNQNVDYYGNSYVHWYQQKPGQKPKLLIYLASNLASGIPARFSGRGSGTDFTLTIDPVEAADTATYYCQQSRDLPNTFGAGTKLELK	binds			
PMab-1, rat anti-MAP monoclonal antibody (IgG2a, kappa) (antibody, V domains shown, VH of PMab-1; as the VH of m1 (PDB 6lz4, VH-SARAH chain) but with Asn43, Asn54 and Ser112 of the parent antibody; constant region of rat IgG2a heavy chain; VL of PMab-1; as the VL of m1 (PDB 6lz4, VL-SARAH chain); constant region of rat kappa light chain; Whole antibody; immobilised on Sepharose for pull-downs, used at 1.0 ug/ml in flow cytometry; copies: 2 + 2) VH: QIQLQQSGTVLVKPASSVKISCKASGYSFTSHYMHWIRQQPGNGLEWIGWISPENGNTKYNQKFDGKATLTADKSSSIAYMQLSSLTSEDSAVYFCVSWEDWSAYWGQGTLVTVSS VL: DIVLTQSPALTVSLGQRATISCKTNQNVDYYGNSYVHWYQQKPGQKPKLLIYLASNLASGIPARFSGRGSGTDFTLTIDPVEAADTATYYCQQSRDLPNTFGAGTKLELK		binds	binds	binds
